The text below walks through data of publication PMC10424185, “C-2 Thiophenyl Tryptophan Trimers Inhibit Cellular Entry of SARS-CoV-2 through Interaction with the Viral Spike (S) Protein” (Journal of Medicinal Chemistry, 2023).

For this assay, the target named is S:D614G protein (SARS-CoV-2 spike with the D614G mutation, form used for cryoEM) (SARS-CoV-2 | not stated). Description: cryo-EM structure.

The term stoichiometry N denotes a count of units in the complex or per binding partner. Consider “S:D614G protein (SARS-CoV-2 spike with the D614G mutation, form used for cryoEM)”, for which the stoichiometry N is 3.
